Consider 30 sequences from the nanobody polyreactivity screen of Harvey et al. (2022).

The nature of the data set: yeast display, Sf9 membrane polyspecificity reagent, FACS + sequencing; frameworks hold sequencing errors. In a few lines:
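Galactose-induced (36–48 hours) yeast carrying a synthetic nanobody display library were exposed to 10% biotinylated, detergent-solubilized Sf9 membrane reagent at 4 °C for 1 hour. FACS followed streptavidin microbead enrichment, using low and high (top ~1%) gates for expression (anti-HA) and reagent binding (streptavidin). Colony PCR, MiSeq 2 × 250 sequencing and CDR-length filtering followed. Labels for polyreactivity reflect the gate of origin.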
Take “QVQLVESGGGLVQAGGSLRLSCAASGRTFGSNAMGWYRQAPGKERELVAAITSSADSTYYADSVKGRFTISRDNAKNTVYLQMNSLKPEDTAVYYCATDQGGYYENDYWGQGTQVTVSS”: the “polyreactivity (PSR sort gate)” value is given as “low polyreactivity”. In the case of “QVQLVESGGGLVQAGGSLRLSCAASGRTFGSNAMGWYRQAPGKERQLVAAITRRGGSTYYADSVKGRFTISRDNAKNTVYLQMNSLKPEDTAVYDCATDPVSTRGSDYWGQGTQVTVSS”, the “polyreactivity (PSR sort gate)” value is given as “low polyreactivity”. The value for “QVQLVESGGGLVQAGGSLRLSCAASGRTFGSYAMGWYRQAPGKERELVAAISKGGGSTYYADSVKGRFTISRDNAKNTVYLQMNSLKPEDTAVYYCAKRRFDYYYYGGQGTQVTVSS” was “high polyreactivity”; that for “QVQLVESGGGLVQAGGSLRLSCAASGRTFGSYAMGWYRQAPGKERELVAAITWSGTGTYYADSVKGRFTISRDNAKNTVYLQMNSLKPEDTAVYYCAVYTIGYLAWYQKFDYWGQGTQVTVSS” was “high polyreactivity”; that for “QVQLVESGGGLVQAGGSLRLSCAASGRTFGSYGMGWYRQAPGKERELVAAISRSVGSTYYADSVKGRFTISRDNAKNSVYLQMNSLKPEDTAVYYCAVLNHRSFRYTSYYYWGQGTLVTVSS” was “high polyreactivity”. The value for “QVQLVESGGGLVQAGGSLRLSCAASGRTFGTNAMGWYRHAPGKERELVAANSRRGGSTYYAESVKGRFTISRDNEKNTVYLQMNSLKPEDTAVYYCAKTIGLKHEDEYWGQGTQVTVSS” was “low polyreactivity”; that for “QVQLVESGGGLVQAGGSLRLSCAASGRTFGTNAMGWYRQAPGKERELVAAINQNGGSTYYADSVKGRFTISRDNAKNTVYLQMNSLKPEDTAVYYCAARSLDRYYHNANYYPYYYWGQGTQVTVSS” was “high polyreactivity”; that for “QVQLVESGGGLVQAGGSLRLSCAASGRTFGTNTMGWYRQAPGKVRELVATISSSSGSTYYADSVKGRFTISRDNAKNTVYFQMNSLKPEDTAVYYCAALCRWRYKRYDYWGQGTQVTVSS” was “high polyreactivity”. The entry for “QVQLVESGGGLVQAGGSLRLSCAASGRTFGTYALGWYRQAPGKERELVASITSGDSTNYADSVKGRFTISRDNAKNTVYLQMNRLKPEDTAVYYCNARGDVIVTPPKFSFNYEYWGQGTQVTVSS” is “low polyreactivity”. For “QVQLVESGGGLVQAGGSLRLSCAASGRTFGTYAMGWSRQAPGKERELVAAITWRTGNTYYADSVKGRFTISRDNAKNTVYLQMNSLKPEDTAVYYCAKTSSGRKFYWGQGTQVTVSS”, the “polyreactivity (PSR sort gate)” value was “high polyreactivity”. The value for “QVQLVESGGGLVQAGGSLRLSCAASGRTFGTYAMGWYRQAPGKEREFVAAISRNGGSTYYADSVKGRFTISRDNAKNTVYLQMNSLKPEDTAVYYCATGVLWSAYRYRPNLGYDDWGQGTQVTVSS” was “low polyreactivity”. The value for “QVQLVESGGGLVQAGGSLRLSCAASGRTFGVNAMGWYRQAPGKERELVAAITKDSGSTNYADSVKGRFTISRDNAKNTVYLQMNSLKPEDTAVYYCAARVWVRGYYWGQGTQVTVSS” was “low polyreactivity”; that for “QVQLVESGGGLVQAGGSLRLSCAASGRTFGVNAMGWYRQAPGKERELVASISNKGSTYYADSVKGRFTISRDNAKNTVYLQMNSLKPEDTAVYYCAADEYWSWDGTRYGVHYYYWGQGTQVTVSS” was “low polyreactivity”. Take “QVQLVESGGGLVQAGGSLRLSCAASGRTFGVYAMGCYRQAPGKERELVAGIRWRGGSTYYADSVKGRFTNSRDNAKNTVYLQMNSLKPEDTAVYYCAADVYLVKYDYWGQGTQVTVSS”: the “polyreactivity (PSR sort gate)” value was “low polyreactivity”. On to “QVQLVESGGGLVQAGGSLRLSCAASGRTFGVYAMGWYRQAPGKERELVAGIRWRGGSTYYADSVKGRFTISRDNAKNTVYLQMNSLKPEDTAVYYCAADVYLVKYDYWGQCTQVTVSS”, for which the “polyreactivity (PSR sort gate)” value was “low polyreactivity”. Take “QVQLVESGGGLVQAGGSLRLSCAASGRTFGVYAMGWYRQAPGKERELVAGIRWRGGSTYYADSVKGRFTISRDNAKNTVYLQMNSLKPEDTAVYYCAADVYLVKYDYWGQGTQVTVSS”: the “polyreactivity (PSR sort gate)” value is listed as “low polyreactivity”.

For “QVQLVESGGGLVQAGGSLRLSCAASGRTFGVYAMGWYRQAPGKERELVASISRSGGSTYYADSVKGRFTISRDNAKNTVYLQMNSLKPEDTAVYYCAAVYKRGMDYWGQGTQVTVSS”, the “polyreactivity (PSR sort gate)” value was “high polyreactivity”. As for “QVQLVESGGGLVQAGGSLRLSCAASGRTFGVYAMGWYRQAPGKERELVAVIRVIGGSTNYADSVKGRFTISRDNAKNTVYLQMNSLKPEDTAVYYCAADQYYSSDYDYWGQGTQVTVSS”, the “polyreactivity (PSR sort gate)” value was “low polyreactivity”. The entry for “QVQLVESGGGLVQAGGSLRLSCAASGRTFGVYVMGWYIQAPGKERELVAVITISGGSTYYADSVKGRFTISRDNAKNTVYLQMNSLKPEDTAVYYCAARTYYGYDYWGQGTQVTVSS” is “high polyreactivity”; for “QVQLVESGGGLVQAGGSLRLSCAASGRTFGWNAMGWYRQAPGKERELVAAISRTGNTYYADSVKGRFTISRDNAKNTVYLQMNSLKPEDTAVYYCAKGRYYTPTYFRGVDLYDYWGQGTQVTVSS” it is “low polyreactivity”; for “QVQLVESGGGLVQAGGSLRLSCAASGRTFGWYAMGWYRQAPGKERELVASITQRGGRTYYADSVKGRFTISRDNAKNTVYLQMNSLIPEDTAVYYCAARGATVSSRIYGYWGQGTQVTVSS” it is “high polyreactivity”. “QVQLVESGGGLVQAGGSLRLSCAASGRTFGYNAMGWYREAPGKERELVPAITTSGGSTYYADSVKGRFTISRDNAKNSVYLQMNSRKPEDTAVYYCAADYSFFYRYTWLVYIFDYDYWGQGTQVTVSS”: the “polyreactivity (PSR sort gate)” value was “low polyreactivity”.

Consider “QVQLVESGGGLVQAGGSLRLSCAASGRTFGYNAMGWYRHAPGKERELVAAISSSGGSTYYADSVKGRFTISRDNAKNTVYLQMNSLKPEDTEVYYCATQGYSWAHGSDYWGQGTQVTVSS”, for which the “polyreactivity (PSR sort gate)” value was “low polyreactivity”. With “QVQLVESGGGLVQAGGSLRLSCAASGRTFGYNAMGWYRQAPGKERELVAAIRTIGDSTYYADSVKGRFTISRDNAKNTVYLQMNSLKPEDTAVYYCAARKLRSRYDYWGQGTQVTVSS”, the “polyreactivity (PSR sort gate)” value is “high polyreactivity”. For “QVQLVESGGGLVQAGGSLRLSCAASGRTFGYNAMGWYRQAPGKERELVASISYSGGSTYYADSVKGRFTISRDTAKNTVYLQMNSLKPEDTAVYYCSAKYWYWQSPSKYYYWGQGTQVTVSS”, the “polyreactivity (PSR sort gate)” value was “high polyreactivity”.

Regarding “QVQLVESGGGLVQAGGSLRLSCAASGRTFGYNAMGWYRQAPGKERELVATITSSDSTYYADSVKGRFTISRDNAKNTVYLQMNSLKPEDTAVYYCAADDVGWGYYVYSYPYDYWGQGTQVTVSS”, the “polyreactivity (PSR sort gate)” value was “low polyreactivity”. With “QVQLVESGGGLVQAGGSLRLSCAASGRTFGYTMGWYRQAPGKERELVAAITRSVTTYYADSVKGRFTISRDNAKNTVYLQMNSLKPEDTAVYYCAAVNTLREMYWGQGTQVTVSS”, the “polyreactivity (PSR sort gate)” value was “high polyreactivity”. In the case of “QVQLVESGGGLVQAGGSLRLSCAASGRTFGYYAMGWYRQAPGKEREFVAAISWSGGSTYYADSVKGRFTISRDNAKNTVYLQMNSLKPEDTAVYYCATDTTYYAGSWYGYWGQGTQVTVSS”, the “polyreactivity (PSR sort gate)” value is given as “low polyreactivity”. The entry for “QVQLVESGGGLVQAGGSLRLSCAASGRTFGYYAMGWYRQAPGKERELVAAISSRGGSTSYADSVKGRFTISRDNAKNTVYLQMNSLKPEDTAVYYCAVGRPRPKYEYDYWGQGTQVTVSS” is “high polyreactivity”. The entry for “QVQLVESGGGLVQAGGSLRLSCAASGRTFGYYAMGWYRQAPGKERELVAAISWRTVSTHYADSVKGRFTISRDNAKNTVYLQMNSLKPEDTAVYYCAARWGKIRGFHLDYWGQGTQVTVSS” is “high polyreactivity”.
